Here are results for one molecule from US20170259217A1 (GOVERNORS OF THE UNIVERSITY OF ALBERTA, published 2017).

The target of this assay is T1, OmpG, bacterial porin (Escherichia coli K12) (Escherichia coli K12, UniProt P76045 22-301, limits assumed).
T1 sequence (looked up): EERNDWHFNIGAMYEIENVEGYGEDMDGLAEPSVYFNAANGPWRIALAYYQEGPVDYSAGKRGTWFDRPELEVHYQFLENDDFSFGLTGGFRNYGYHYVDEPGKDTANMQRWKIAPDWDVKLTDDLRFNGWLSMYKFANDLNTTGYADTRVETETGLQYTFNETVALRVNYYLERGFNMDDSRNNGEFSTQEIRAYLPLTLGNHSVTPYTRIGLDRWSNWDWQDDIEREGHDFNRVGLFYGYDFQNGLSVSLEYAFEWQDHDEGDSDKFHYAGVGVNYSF
The assay can be described thus: circular dichroism of peptide-stabilized protein. Background: Circular dichroism is the unequal absorption of left and right circularly polarised light.

Non-standard residues stand in square brackets, D forms with d. amino hexenoic acid = amino hexenoic acid, a vinyl (alkene)-bearing residue; Gly(octyl) = CCCCCCCC[C@H](N)C(=O)O; NMeL = CN[C@@H](CC(C)C)C(=O)O

B1: vinyl (alkene mid-) functionalized β-sheet peptide, structure (8): acetyl-(octyl)Gly-Ser-Leu-Ser-amino hexenoic acid-Leu-Asp-(octyl)Gly-Asp-Gly-Leu-NH2 (peptide)
peptide: Ac-[Gly(octyl)]SLS[amino hexenoic acid][NMeL]D[Gly(octyl)]DGL-NH2
notes: Synthetic 11-residue peptide; also called Vinyl-BP1
Turning to B1, the binding result is reported as “binds”.
